Values quoted from earlier work in publication PMC3956856, “Interaction of Kinase-Interaction-Motif Protein Tyrosine Phosphatases with the Mitogen-Activated Protein Kinase ERK2” (PLoS ONE, 2014).

System: p38α
Conditions: NMR spectroscopy; ref [14]; cited from earlier work
Excerpt: Although there are a few structural differences between ERK2 and p38α in this region (e.g., the activation loop is six residues longer in ERK2), nearly all residues that that we sh ... || The KIM domains of KIM-PTPs are intrinsically disordered in solution [14], [15]. Thus, they only adopt a single conformation when they bind their respective MAPKs. This is different from the MAPK-binding domains (MKBD) of MAPK phosphatases (MKP; dual specificity phosphatases; DUSPs), [26]. In MKPs, the KIM sequence is part of a stable, folded domain and thus adopts a single, ordered conformation in both the unbound and MAPK-bound states, [28]. […] Our ...

B1: STEPCAT: STEPCAT (residues 244–539), catalytic domain of STEP (protein, UniProt P54829 244-539, looked up, fragment)
chain: GSNVSLTLDMCTPGCNEEGFGYLMSPREESAREYLLSASRVLQAEELHEKALDPFLLQAEFFEIPMNFVDPKEYDIPGLVRKNRYKTILPNPHSRVCLTSPDPDDPLSSYINANYIRGYGGEEKVYIATQGPIVSTVADFWRMVWQEHTPIIVMITNIEEMNEKCTEYWPEEQVAYDGVEITVQKVIHTEDYRLRLISLKSGTEERGLKHYWFTSWPDQKTPDRAPPLLHLVREVEEAAQQEGPHCAPIIVHCSAGIGRTGCFIATSICCQQLRQEGVVDILKTTCQLRQDRGGMI
modifications: catalytic domain
notes: STEPCAT (residues 244–539), catalytic domain of STEP
For B1, the “interaction with p38α by NMR (in words)” value is given as “interacts directly with p38α”.
